In publication PMC6468047, “Cannabinoid CB1 and CB2 Receptor-Mediated Arrestin Translocation: Species, Subtype, and Agonist-Dependence” (Frontiers in Pharmacology, 2019):

How the values were obtained:
CB2 (hCB2) [1] = target: T1, CB2 (hCB2) (Homo sapiens, UniProt P34972); test: BRET human β-arrestin-1 plasma membrane translocation; type: cell-based; settings: 10 µM; HEK-293, 37 °C, single concentration 10 μM, no GRK2 co-expression
T1 construct: gene CNR2; 3HA-hCB2 in pEF4a: N-terminal 3xHA tag, untagged C-terminus; transient in HEK-293 with Rluc8-arrestin and mem-linker-Citrine reporters
Description: BRET human β-arrestin-1 plasma membrane translocation on CB2 (hCB2)

[2] = target: human cannabinoid receptor 1 (pplss-3HA-hCB1) (human) (UniProt P21554)
[3] = target: human cannabinoid receptor 2 (3HA-hCB2) (human) (UniProt P34972)
[4] = target: human vasopressin receptor 2 (3HA-hV2R) (human) (UniProt P30518)
CB2 (hCB2) [5] = target: T1, CB2 (hCB2); test: BRET human β-arrestin-2 plasma membrane translocation; type: cell-based; settings: read-out: CB2 / logEC50 ± SEM (converted)

Chain of human β-arrestin-2 (Rluc8-hβ-arrestin-2-Sp1) (P32121 whole entry): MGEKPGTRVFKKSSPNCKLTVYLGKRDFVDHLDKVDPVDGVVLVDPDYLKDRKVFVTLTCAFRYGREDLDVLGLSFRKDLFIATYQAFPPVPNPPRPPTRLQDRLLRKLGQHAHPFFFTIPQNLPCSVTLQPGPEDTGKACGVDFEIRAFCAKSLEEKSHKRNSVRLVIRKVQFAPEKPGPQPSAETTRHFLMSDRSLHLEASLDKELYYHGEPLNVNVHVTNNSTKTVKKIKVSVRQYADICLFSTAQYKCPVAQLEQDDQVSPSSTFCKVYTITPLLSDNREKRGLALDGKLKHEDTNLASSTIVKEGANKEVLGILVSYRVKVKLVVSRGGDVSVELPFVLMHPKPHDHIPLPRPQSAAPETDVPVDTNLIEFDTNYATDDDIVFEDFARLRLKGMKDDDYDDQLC
Chain of human cannabinoid receptor 2 (3HA-hCB2) (human) (P34972 whole entry): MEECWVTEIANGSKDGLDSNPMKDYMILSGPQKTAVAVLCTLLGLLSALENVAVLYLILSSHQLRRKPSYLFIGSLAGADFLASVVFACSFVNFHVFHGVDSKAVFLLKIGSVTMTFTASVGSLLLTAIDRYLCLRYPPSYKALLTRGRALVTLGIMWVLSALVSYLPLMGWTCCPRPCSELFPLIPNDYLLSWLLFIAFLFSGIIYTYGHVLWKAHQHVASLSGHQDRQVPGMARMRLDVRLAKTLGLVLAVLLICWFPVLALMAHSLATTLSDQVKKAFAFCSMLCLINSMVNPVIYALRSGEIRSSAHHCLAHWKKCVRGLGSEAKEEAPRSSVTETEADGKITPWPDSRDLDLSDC
Chain of human cannabinoid receptor 1 (pplss-3HA-hCB1) (human) (P21554 whole entry): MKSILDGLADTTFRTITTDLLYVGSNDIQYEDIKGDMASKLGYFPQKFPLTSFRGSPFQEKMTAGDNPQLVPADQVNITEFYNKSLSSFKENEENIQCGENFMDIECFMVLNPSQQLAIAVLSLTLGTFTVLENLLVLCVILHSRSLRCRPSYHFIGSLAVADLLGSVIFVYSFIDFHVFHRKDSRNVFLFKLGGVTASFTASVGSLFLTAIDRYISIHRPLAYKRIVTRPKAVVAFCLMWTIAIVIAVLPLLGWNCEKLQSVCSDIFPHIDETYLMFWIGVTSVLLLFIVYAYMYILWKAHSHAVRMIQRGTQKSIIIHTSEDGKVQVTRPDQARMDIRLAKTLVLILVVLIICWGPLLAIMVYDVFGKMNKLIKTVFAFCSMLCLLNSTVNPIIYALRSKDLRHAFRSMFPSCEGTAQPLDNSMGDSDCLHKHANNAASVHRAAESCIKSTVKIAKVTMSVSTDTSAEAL
T1 sequence (P34972 whole entry): as the sequence (P34972 whole entry) above

In the case of `CCCCCc1cc(O)c2c(c1)OC(C)(C)[C@@H]1CCC(C)=C[C@@H]21` [THC], the “CB2 / Response ± SEM (ΔBRET.sec)” value (CB2 (hCB2) [1]) is reported as 14.4 ± 2.8 ΔBRET.sec.

For “human β-arrestin-2 (Rluc8-hβ-arrestin-2-Sp1) (from UniProt P32121 1-409) (natural protein)”, the Emax, arrestin translocation to the plasma membrane (BRET, AUC of 25 min); agonist 2-AG [2] was 236 ΔBRET.sec, the Emax, arrestin translocation to the plasma membrane (BRET, AUC of 25 min); agonist 2-AG; GRK2 co-expressed [2] was 150 ΔBRET.sec and the Emax, arrestin translocation to the plasma membrane (BRET, AUC of 25 min); agonist AEA [2] was 47.9 ΔBRET.sec. The Emax, arrestin translocation to the plasma membrane (BRET, AUC of 25 min); agonist CP55,940 [2] was 83.7 ΔBRET.sec, the Emax, arrestin translocation to the plasma membrane (BRET, AUC of 25 min); agonist CP55,940; GRK2 co-expressed [2] was 120 ΔBRET.sec and the Emax, arrestin translocation to the plasma membrane (BRET, AUC of 25 min); agonist WIN55,212-2 [2] was 164 ΔBRET.sec. The efficacy at 10 μM BAY (NA, not active; no curve could be fitted), arrestin translocation to the plasma membrane (BRET, AUC of 25 min) [2] was 15.3 ΔBRET.sec, the efficacy at 10 μM THC (NA, not active; no curve could be fitted), arrestin translocation to the plasma membrane (BRET, AUC of 25 min) [2] was 5.9 ΔBRET.sec and the Emax, arrestin translocation to the plasma membrane (BRET, AUC of 25 min); agonist 2-AG [3] was 31.3 ΔBRET.sec. The Emax, arrestin translocation to the plasma membrane (BRET, AUC of 25 min); agonist 2-AG; GRK2 co-expressed [3] was 68.7 ΔBRET.sec, the Emax, arrestin translocation to the plasma membrane (BRET, AUC of 25 min); agonist CP55,940 [3] was 37.4 ΔBRET.sec and the Emax, arrestin translocation to the plasma membrane (BRET, AUC of 25 min); agonist CP55,940; GRK2 co-expressed [3] was 70.4 ΔBRET.sec. The Emax, arrestin translocation to the plasma membrane (BRET, AUC of 25 min); agonist JWH-015 [3] was 34 ΔBRET.sec, the Emax, arrestin translocation to the plasma membrane (BRET, AUC of 25 min); agonist JWH-133 [3] was 37.8 ΔBRET.sec and the Emax, arrestin translocation to the plasma membrane (BRET, AUC of 25 min); agonist WIN55,212-2 [3] was 24.4 ΔBRET.sec. The efficacy at 10 μM THC (NA, not active; no curve could be fitted), arrestin translocation to the plasma membrane (BRET, AUC of 25 min) [3] was -3.8 ΔBRET.sec and the Emax, arrestin translocation to the plasma membrane (BRET, AUC of 25 min); agonist AVP [4] was 306 ΔBRET.sec.

In the case of `CCCCC/C=C\C/C=C\C/C=C\C/C=C\CCCC(=O)OC(CO)CO` [2-AG], the EC50 (CB2 (hCB2) [5]) is reported as 1.86 µM.
